Data published in publication PMC6715450 (Nature, 2019).

Molecular target: human apo-Calmodulin (cryo-EM complex) (human, UniProt P0DP23)
Assay: cryo-EM structure

B1: full-length SidJ (cryo-EM complex) (enzyme)
chain: MFGFIKKVLDFFGVDQSEDNPSETAVETTDVSTKIKTTDTTQEESSVKTKTVVPTQPGGSVKPETIAPDQQKKHQIKTETTTSTTKQKGPKVTLMDGHVKQYYFARRGETSTHDTSLPPPVKVLSGRSIPLKEIPFEATRNELVQIYLTSIDKLIKSNKLNSIPSQQIASHYLFLRSLANSETDGIKKNQILSLAKPLGTYLASKEPHVWKMINELIEKSEYPIIHYLKNNRAHSNFMLALIHEYHKEPLTKNQSAFVQKFRDSSVFLFPNPIYTAWLAHSYDEDSSFNPMFRERLSTNFYHSTLTDNLLLRTEPKEVTLSSEHHYKKEKGPIDSSFRYQMSSDRLLRIQGRTLLFSTPQNDVVAVKVQKKGEPKSTLEEEFEMADYLLKHQRRLDVHSKLPQPLGQYSVKKSEILEISRGSLDFERFKTLIDDSKDLEVYVYKAPQSYFTYLHDKNQDLEDLTASVKTNVHDLFVLLREGIVFPQLADIFHTHFGEDEREDKGRYQALVQLLNVLQFQLGRIDKWQKAVEYVNLRSSGLADLGDSLPITSLFTSSDFTKHYFSELLTGGYHPTFFDKSSGTANSLFTGKRRLFGNYLYLNTIAEYLLVIQLTLGSYGDKVTRDMMDKPKKEAVWRELANVMFTSCAEAIHIMTGIPQSRALTLLKQRANIEKHFRQTQFWMTPDYSKLDEDTLQMEQYSIYSGEPEYEFTDKLVSGVGLSVDGVHQDLGGYNRESPLRELEKLLYATVTLIEGTMQLDKEFFKQLEQVEKILSGEIKTDANSCFEAVAQLLDLARPGCHFQKRLVLSYYEEAKLKYPSAPTDAYDSRFQVVARTNAAITIQRFWREARKNLSEKSDIDSEKPESERTTDKRL
B1: binds.
